A protein production outcome set (Wang et al. 2014)

Experiment: label from the status in PepcDB records
With “MPSAEISSSTEAKQAATTVDVSYKTHVQTFGWQDWAANGASAGTTGLAKRLEAIQIKTSAPASQGGIRYRTHVQTYGWLDWVSDGASSGTTGEAKRLEAIQIELTGALATQYDVYYRVHAQTFGWLDWACNGASAGSAGYAKRLEAIQIVLVPKGGKAPGSTAAPYKELPPAVSYQSYLSGAWQNSVLDNAVSGTVGQAKQIEGIKISLQDKAVSFAGSSIQYRTYLQTYAWQDWTSNGGTSGKPGSGKRVEAVQIKLTGSIASSYDVYYRVHSQTFGWLDWACNGQSAGSAGYAKRIEAIQIVLVKKGGAAPGSTATPYKEAPPSVTYQTYISGGWQPTVADKATSGLAGQGKKTEGLRVSLKAGAQSLGNSSVKYRTYLQTYGWQSWVSNGASSAKAGSGKRMEAIEISLTGDISSQYDIYYRSYVTGYGWLGWACNGATSGTTDYAKPIEAVQAVLVKKGGAAPGSTSNAYLKPEVTGPFEISFSPSGASNFGGLVSIEPDHDVILVASAKGGAGGYQYRYRAELIGGSIQTLKDYSGSSSYTWRPNTPGRYKMYVDVKDSTGTVKTAMFQMSVGLSGIDVSEHQGTIDWKKVKAAGIDYAMIRAGFGWEEIDDQTDASLVQNVTGAKQAGLPFGLYHYSYADTVEEAKKEAEFLLDILEANNIAPSDLSYPIAFDIEEPDRLNVSQRRVNTDMVNAFCEIIRDAGYLPMVYASKTVIQDYLYYDEISANNIWMAAWTSTPNDTEIFDNCFPVDMWQYSESGTVDGINGRVDLNICYTTVFRDGSADTTQKGKVVVDAGSSLNVRKAPSVNADVVGSLYKDDIVTIISETSGWYQIVTSTGVSGYVSAEYIQKI” the protein production was “failed”. For “MPSEKEILDALSKVYSEQVIQADDYFRQAIFELASQLEKEGMSSLLATKIDSLINQYILTHQFDAPKSIFDLSRLVKTKASHYKGTAISAIMLGSFLSGGPK”, the protein production was “not failed”. With “MPSGQEGLDKFHNLNKGKTMFMQRLITTLILVPLVLLAIFYAPSWILWGVVLVILLLAGMECFKLIPVDNLTVQACFLIFLLMCFWACGYFYSYWLSVGLLVWLLNGLAILTYPRSQNYWGYPIVVAIASLILLPLFTQSLMQISFLQQGKELLVYLLFLIWASDIGAYLTGKQWGKHKLIPKVSPGKSWEGVTGGVILAMIVATLGYYYFIPYSIYIWFGLALSTVVISIFGDLFISILKRRCQLKDTGNIIPGHGGILDRLDSLIAALPWFYFGLTYIPLGI” the protein production was “failed”. With “MPSIKIRENEPFEIAIRRFKRACEKAGVLSEVRRREYYEKPTEERKRKAAAAIKRHLKKLSRERFALQNLRKGRPQQLEHHHHHH” the protein production was “not failed”. With “MPSKQDVLLLDYWDQWAEAYRINGKSINTVYRYKLFRKHLKSRFDGRKLNSIRPIEWQKFINDFAAGKDRKEKTTRKRPRERSKDIVTKMNSYVRGMVKAAINERILFSDFTFGTKTSGVRSSGKVKVLEHHHHHH” the protein production was “not failed”. In the case of “MPSLCKLNPCIQTHKEVIMDNLITQLLFSASITGPICVMLLLGVLLKRIHLINDNFIEVASKLVFQVTLPAMLFLSIVNAKHDFSSSSHLIIYGLIANFVFFLFTIYSTRFAFKNKQNHGVIIQGGFRANTAIIALAYVANAYGNTGVALAAIYVASTTILYNIQAVIALTPKNENNKKQAVGIIIKTLTKNPLIISIVLGIICSLLSIPVPGMLSQAGQYFANMTLPLALLCAGGSLNLHSMKEESAATWFATSYKLILSPLFITSGGILVGFRGLELGLIFFMSAAPTAAASYVMARAMGGNAILAANIIAQTTVASLFTCTLGIFVLSSFNLI”, the protein production is reported as “failed”. For “MPSLGEAPQDLQRSQERRRIERIFAQGGKGVASPHRFPGPLPMLQNIPTHVIAGPLGAGKTSLIRHLLSQRPAAERWAVLINEFGQIGLDAALLTRDEDGIALGEVAGGCLCCVNGAPFQVGLGRLLRKARPDRLLIEPSGLGHPAQLLKQLNEAPWKGVLAVQPCVLVLDAQALAAGKPLPRAQQDALSSAGLLVLNKDELLSDSDRLRVLEQLPDLPLFWTRHAALPLAELPGLGASAEAALEQSDIPQGLAQLPAVWSDPTLPICLSQSQEDGWSIGWRWHPSQQFDLVRVEHWLQNLDWRRAKLVLHSDQGWRSGNGLDNSPLNWLPSEWRRDSRLELIFSSPQDIAVLQASLDACRLLEHHHHHH”, the protein production was “failed”. For “MPSLPDRRRWLLDGARDTVPMMVGAAPFGLIFGTLAIAAGLSPAATAAMSLLVFAGSSQFIAVSLVSAGAALPVIWLTTFVVNLRHALYSATLLPYARPWPLAWRWPLAFWLTDETFAVVEHRFRSLGAEGGQWYWLGSSLSMYLNWQLWTLAGVALGRSVPGLDRLGLDFAMVATFAAIVAPQLKKRPTLAAALAAGAVALLARGLPYKLDLMLAALAGVAAGMMVERGQKREAA”, the protein production was “failed”. For “MPSLSVRGSLLLVCALAVTGCASLQSQDQINYAHCRMVGQASKAEKFDVVLQEADLCLEKNQLSQPMQSLVYWLKSDAYASFKRYPEAIAAKEKSIELGPKPDARAVLDLSRLYREAGNPQKALELVQSNLDNNLGEAGKGSGFNMPTYYHLGQTLYDLGRYREAAEAYSTGLLKQPDYAWAFYHRGLAYDKLGQTDDARADFAQFAKLVNQKYVEPQHQAKLAEYKIKLP”, the protein production was “failed”. With “MPSPSGGWGCGGTWARGVDGARLFSIHHQAVRPNLSTISPPKEPPMIEVRHLCKSFARKPAVQDISFSIPAGEIVGYLGPNGAGKSTTIKVLTGLLVPDSGEVRVGGLVPWKQRRQHVARLGAVFGQRTTLWWDLPVRESLELLRHVYRVPAARFAENLAGFTELLELGPFLNTPARALSLGQRMRADLAAALLHDPELLFLDEPTVGLDVVAKERIREFVKAVNAERGVTVLLTTHDLGDVERLARRVMMIDTGRLLFDGPLAELQARYGGERELWVEFEKAPAQPALPGLTLLGQDGPRVRYGFSGAAAAPIAQVTALAPVRDLAVKEPEVEATIRRIYEGNLLGSRSVREGLEHHHHHH” the protein production was “failed”. In the case of “MPSPVLIAIDASPASSTLLTLARRYCRPGEHELHVLLAIDSTFAVHEQPAPYTAEELEEYPAACQEQQHADHAVAEAVRELQQAGFASQGCMVAGLPVEAIVTKAQELNCELIIMGHRHLSRLGRLLDPSISAKVIDRVDMPVLV”, the protein production is reported as “failed”. In the case of “MPSTVSSSRLGLAGLCILLAGQLLPMIDFSIVNVALDALAHSLGASETELELIVAVYGVAFAVCLAMGGRLGDNYGRRRLFVLGVALFAVASLLCGLAGSVWLLLVARALQGVGAALVVPQILATLHVSLSGHAHSRALAAYGAIGGLAFVVGQVLGGFLVSADIGGLGWRSVFLINLPICLGILLCSRRWVPETRAEHAARVDAPGTLLLAALILCLLLPLALGPSLHWSWPCALLLAAAVPLLAWLWRTELRQERRQAWPLLPPSLLRLPSIRFGLLLAILFFACWSGFMFALALALQAGAGLSPVQAGNAFIALGASYFVSALLTARVAARIGPVRLLLLGCVIQMCGLLGLMLTLQRVWPQPGILNLAPATLVIGFGQAFIVSSFFRIGLSEVPAAQAGAGSAMLATVQQASLGLGSALLGAVFAHRLERHGDYLEATQTTLAVEFVLMTLLLGATCLFYLRRVRTVPLRCDSPGN”, the protein production is reported as “failed”. With “MPTLFDDPLHQLPRPPRRVAAGVVHLPNFLGLAEQKALVAQARDLAREVVGTPLAMVRPKLKSGQMSVHMLHLGKYWASNPYRYVDVVDGFPVPPLPDSFVDLAHRALLSAGSLSNSLQSWSEAYRAEAALVNYYSPDASMGMHQDANEESEAPVISLSIGDTGIFRLGGTLNRNKPWTDIPLMSGDLIVFGGANRQAFHGIPSIEANTAPAGCGLKEGRINITIRQLALLEHHHHHH” the protein production was “not failed”. For “MPTPFDVTILGGGLAGRLCAWQLAQTGVPPARIAVVERGARDGSGSAAYVAAAMLAPLAEAAVADRFVVELGLASLTLWRDWLPMLRTPVFFQQAGTLVVWHPADRGEASLFANHVRAATPPERIAADLRAVDAEGIGTLEPALAQRFSQGLYLAGEGQLDNRAVLDALATELEALGVQLRWNTAVADPHPQALAAAGLGARLVLDCRGLGAQPQWPQLRGLRGEVARIHAPDVTLTRPVRMLHPRYPIYIAPKPGHVYVIGATEIESDDMSPVSVRSTLELLSAAYAVHPAFGEARVLELCTQCRPTLPDHRPAIRWDGAGTLSVNGLYRHGYMIAPAVAQAAVAAAHALLDGRAIDAPASAWPGLFAAPASPEPVLPLEHHHHHH”, the protein production was “not failed”. For “MPTTRKENLQFGMMMCLGMVIVMTFYNLLMNETGGPIYIKEIALELLIGFIIALLIEISIVGPCAKKIVFMLPFDKSKKINIIVAMATTMVIGMVFFMSFFGMAMMHLHGGLQGASFVSIYFSIFIKNFIMAYPLQLIIMGPLVRFLFAKFVMKKKSFNVA”, the protein production was “failed”.
